The text below walks through data of article PMC7764042.

Some results are limits rather than exact numbers.

The target in the assay is recombinant human interferon beta-1a (human), P01574. The assay is described as follows: SPR; IFN-β immobilised on ProteOn GLH chip by amine coupling; Ca^2+-loaded S100 as analyte (0.25–5 µM S100A1, 0.5–5 µM S100A4/A6, 5 µM other S100); 25 °C; 10 mM HEPES, 150 mM NaCl, 0.01% TWEEN 20, pH 7.4, 1 mM CaCl2; heterogeneous ligand model. To be noted: remark: other sources report otherwise.

B1: recombinant human S100B, P04271 1-92 (natural protein)
chain: MSELEKAMVALIDVFHQYSGREGDKHKLKKSELKELINNELSHFLEEIKEQEVVDKVMETLDNDGDGECDFQEFMAFVAMVTTACHEFFEHE
As usually defined, the Kd is the free concentration of one partner at which half of the binding sites on the other are occupied at equilibrium, for simple one-to-one binding. Turning to B1, the Kd is greater than 10 µM.
